Drawing on article PMC6938032 (2020), this text covers Ki and Kd for two molecules.

Test [1] has as its target Neutrophil elastase (Homo sapiens) (UniProt P08246). Nature of the test: progress curve inhibition analysis. The following applies: cited from earlier work.
The target in test [2] is T1, Neutrophil elastase (Homo sapiens, UniProt P08246).
T1 chain: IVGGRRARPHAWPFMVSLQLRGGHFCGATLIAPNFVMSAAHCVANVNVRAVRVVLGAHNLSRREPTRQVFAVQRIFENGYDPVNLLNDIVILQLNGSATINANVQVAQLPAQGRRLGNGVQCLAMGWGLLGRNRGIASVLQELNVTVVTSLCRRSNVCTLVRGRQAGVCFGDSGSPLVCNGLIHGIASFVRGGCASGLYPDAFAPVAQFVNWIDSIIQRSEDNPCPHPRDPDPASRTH
Put plainly: SPR. On the technique in general: In SPR one partner is held on a chip, and binding of the other changes the refractive index at the surface.

The target in test [3] is T1, Neutrophil elastase. Nature of the test: progress curve inhibition analysis.

For EapH1 (from UniProt A0A0H3KEC5), in test [1], the Ki (in general, the equilibrium dissociation constant of an inhibitor or competing ligand from its target) is 0.021 nM.

B1: EapH2 (protein)
chain: AEKDKLPATQKAKEMQNVPYTIAVDGIMAFNQSYLNLPKDSQLSYLDLGNKVKALLYDERGVTPEKIRNAKSAVYTITWKDGSKKEVDLKKDSYTANLFDSNSIKQIDINVKTK
Turning to B1, the Kd (as a rule, the equilibrium constant for the complex coming apart) with Neutrophil elastase [2] stood at 2.16 nM. Moreover, the Ki with Neutrophil elastase [3] came out at 2.11 nM.
